Source: paper PMC12167799, “The role of human Shu complex in ATP-dependent regulation of RAD51 filaments during homologous recombination–associated DNA damage response” (The Journal of Biological Chemistry, 2025)

Substrate: Nc1ncnc2c1ncn2[C@@H]1O[C@H](COP(=O)(O)OP(=O)(O)OP(=O)(O)O)[C@@H](O)[C@H]1O
Assay: malachite green ATPase assay, Michaelis-Menten fit
Assay type: biochemical, Homo sapiens
Settings: 1 μM protein, no DNA (basal activity), 37 °C
Source text: malachite green ATPase assay, Michaelis-Menten fit on hSWS1-SWSAP1 (human Shu complex)

B1: hSWS1-SWSAP1 (human Shu complex) (Homo sapiens) (protein)
chain: MPAAGPPLLLLGTPGSGKTALLFAAALEAAGEGQGPVLFLTRRPLQSMPRGTGTTLDPMRLQKIRFQYPPSTRELFRLLCSAHEAPGPAPSLLLLDGLEEYLAEDPEPQEAAYLIALLLDTAAHFSHRLGPGRDCGLMVALQTQEEAGSGDVLHLALLQRYFPAQCWLQPDAPGPGEHGLRACLEPGGLGPRTEWWVTFRSDGEMMIAPWPTQAGDPSSGKGSSSGGQP
notes: heterodimer co-expressed in High Five insect cells (baculovirus); SWSAP1 with TEV-cleavable N-terminal 6xHis tag (cleaved), SWS1 untagged; with Zinc finger SWIM domain-containing protein 7
Km: 10.0 ± 0.2 mM | Vmax: 0.75 µM/min | kcat: 0.0125 s⁻¹ | kcat/Km: 1.3 M⁻¹ s⁻¹
